# Results from US20230029453A1 (Janssen / Centocor, published 2023).
# Molecular target: T1, HLA-A*01:01 (human, biotinylated heavy chain)
# T1 construct: Conditional HLA class I complex (heavy chain + B2M) first held by a UV-labile peptide; the tested peptide is exchanged in after UV cleavage
# Experiment: UV peptide exchange; HLA class I ELISA
# Experimental: (§1) The UV control represented UV-irradiation of conditional HLA class I complex in the absence of a rescue peptide.
# (§2) The HLA class I ELISA is an enzyme immunoassay based on the detection of beta2-microglobulin (B2M) of (peptide-stabilized) HLA class I complexes. To this end streptavidin was bound onto polystyrene microtiter wells. […] Subsequently, horseradish peroxidase (HRP)-conjugated antibody to human B2M was added. […] In the latter case B2M was removed during the washing step. After removal of non-bound HRP conjugate by washing, a substrate solution was added to the wells. A coloured product formed in proportion to the amount of intact HLA complex present in the samples. After the reaction was terminated by the addition of a stop solution, absorbance was measured in a microtiter plate reader.
Binder,Average %,Exch I (%),Exch II (%)
"IAMDSAITL [Peptide 2, 9-mer IAMDSAITL derived from FUS1 (SEQ ID NO: 1001)]",6.9%,6.7%,7%
"SLIAMDSAI [Peptide 3, 9-mer SLIAMDSAI derived from FUS1 (SEQ ID NO: 1001)]",6.9%,6.9%,6.9%
"SLYHREKQL [Peptide 4, 9-mer SLYHREKQL derived from P22 (SEQ ID NO: 1003)]",6.6%,6.7%,6.4%
"LYHREKQLI [Peptide 5, 9-mer LYHREKQLI derived from P22 (SEQ ID NO: 1003)]",6%,6.2%,5.8%
"YHREKQLIA [Peptide 6, 9-mer YHREKQLIA derived from P22 (SEQ ID NO: 1003)]",5.8%,6.2%,5.5%
"HREKQLIAM [Peptide 7, 9-mer HREKQLIAM derived from P22 (SEQ ID NO: 1003)]",5.4%,5.5%,5.2%
"KQLIAMDSA [Peptide 9, 9-mer KQLIAMDSA derived from P22 (SEQ ID NO: 1003)]",6.3%,6.3%,6.3%
"LIAMDSAIT [Peptide 10, 9-mer LIAMDSAIT derived from P22 (SEQ ID NO: 1003)]",5.8%,6.2%,5.4%

# Molecular target: T2, HLA-A*02:01 (human, biotinylated heavy chain)
# T2 construct: Conditional HLA class I complex as for m1
# Experiment: UV peptide exchange; HLA class I ELISA
# Experimental: as §1, §2
Binder,Average %,Exch I (%),Exch II (%)
"IAMDSAITL [Peptide 2, 9-mer IAMDSAITL derived from FUS1 (SEQ ID NO: 1001)]",85.8%,81.1%,90.5%
"SLIAMDSAI [Peptide 3, 9-mer SLIAMDSAI derived from FUS1 (SEQ ID NO: 1001)]",58.5%,57.3%,59.7%
"SLYHREKQL [Peptide 4, 9-mer SLYHREKQL derived from P22 (SEQ ID NO: 1003)]",87%,82.8%,91.2%
"LYHREKQLI [Peptide 5, 9-mer LYHREKQLI derived from P22 (SEQ ID NO: 1003)]",11.8%,11.3%,12.3%
"YHREKQLIA [Peptide 6, 9-mer YHREKQLIA derived from P22 (SEQ ID NO: 1003)]",17.2%,16.3%,18.1%
"HREKQLIAM [Peptide 7, 9-mer HREKQLIAM derived from P22 (SEQ ID NO: 1003)]",8.2%,7.9%,8.6%
"KQLIAMDSA [Peptide 9, 9-mer KQLIAMDSA derived from P22 (SEQ ID NO: 1003)]",7.2%,6.9%,7.6%
"LIAMDSAIT [Peptide 10, 9-mer LIAMDSAIT derived from P22 (SEQ ID NO: 1003)]",6.9%,6.7%,7.1%

# Molecular target: T3, HLA-A*24:02 (human, biotinylated heavy chain)
# T3 construct: Conditional HLA class I complex as for m1
# Experiment: UV peptide exchange; HLA class I ELISA
# Experimental: as §1, §2
Binder,Average %,Exch I (%),Exch II (%)
"IAMDSAITL [Peptide 2, 9-mer IAMDSAITL derived from FUS1 (SEQ ID NO: 1001)]",7%,6.7%,7.3%
"SLIAMDSAI [Peptide 3, 9-mer SLIAMDSAI derived from FUS1 (SEQ ID NO: 1001)]",5.5%,5.3%,5.7%
"SLYHREKQL [Peptide 4, 9-mer SLYHREKQL derived from P22 (SEQ ID NO: 1003)]",6.6%,6.5%,6.6%
"LYHREKQLI [Peptide 5, 9-mer LYHREKQLI derived from P22 (SEQ ID NO: 1003)]",17.8%,17.5%,18.1%
"YHREKQLIA [Peptide 6, 9-mer YHREKQLIA derived from P22 (SEQ ID NO: 1003)]",6.5%,6.6%,6.3%
"HREKQLIAM [Peptide 7, 9-mer HREKQLIAM derived from P22 (SEQ ID NO: 1003)]",5.5%,5.4%,5.6%
"KQLIAMDSA [Peptide 9, 9-mer KQLIAMDSA derived from P22 (SEQ ID NO: 1003)]",5%,4.6%,5.3%
"LIAMDSAIT [Peptide 10, 9-mer LIAMDSAIT derived from P22 (SEQ ID NO: 1003)]",4.8%,4.6%,5.1%

# Molecular target: T4, HLA-B*07:02 (human, biotinylated heavy chain)
# T4 construct: Conditional HLA class I complex as for m1
# Experiment: UV peptide exchange; HLA class I ELISA
# Experimental: as §1, §2
Binder,Average %,Exch I (%),Exch II (%)
"IAMDSAITL [Peptide 2, 9-mer IAMDSAITL derived from FUS1 (SEQ ID NO: 1001)]",67.1%,68.7%,65.4%
"SLIAMDSAI [Peptide 3, 9-mer SLIAMDSAI derived from FUS1 (SEQ ID NO: 1001)]",11.1%,10.9%,11.3%
"SLYHREKQL [Peptide 4, 9-mer SLYHREKQL derived from P22 (SEQ ID NO: 1003)]",10.8%,10.9%,10.8%
"LYHREKQLI [Peptide 5, 9-mer LYHREKQLI derived from P22 (SEQ ID NO: 1003)]",10.8%,11.5%,10%
"YHREKQLIA [Peptide 6, 9-mer YHREKQLIA derived from P22 (SEQ ID NO: 1003)]",10.8%,11.1%,10.5%
"HREKQLIAM [Peptide 7, 9-mer HREKQLIAM derived from P22 (SEQ ID NO: 1003)]",12.6%,12.6%,12.6%
"KQLIAMDSA [Peptide 9, 9-mer KQLIAMDSA derived from P22 (SEQ ID NO: 1003)]",10.3%,10.5%,10.1%
"LIAMDSAIT [Peptide 10, 9-mer LIAMDSAIT derived from P22 (SEQ ID NO: 1003)]",9.5%,9.8%,9.2%

# Molecular target: T5, HLA-B*08:01 (human, biotinylated heavy chain)
# T5 construct: Conditional HLA class I complex as for m1
# Experiment: UV peptide exchange; HLA class I ELISA
# Experimental: as §1, §2
Binder,Average %,Exch I (%),Exch II (%)
"IAMDSAITL [Peptide 2, 9-mer IAMDSAITL derived from FUS1 (SEQ ID NO: 1001)]",7.9%,7.6%,8.1%
"SLIAMDSAI [Peptide 3, 9-mer SLIAMDSAI derived from FUS1 (SEQ ID NO: 1001)]",7.3%,7.5%,7.1%
"SLYHREKQL [Peptide 4, 9-mer SLYHREKQL derived from P22 (SEQ ID NO: 1003)]",20.7%,20.3%,21.1%
"LYHREKQLI [Peptide 5, 9-mer LYHREKQLI derived from P22 (SEQ ID NO: 1003)]",7.7%,7.5%,7.9%
"YHREKQLIA [Peptide 6, 9-mer YHREKQLIA derived from P22 (SEQ ID NO: 1003)]",8.3%,8.3%,8.4%
"HREKQLIAM [Peptide 7, 9-mer HREKQLIAM derived from P22 (SEQ ID NO: 1003)]",9.5%,9.5%,9.5%
"KQLIAMDSA [Peptide 9, 9-mer KQLIAMDSA derived from P22 (SEQ ID NO: 1003)]",7.7%,7.1%,8.3%
"LIAMDSAIT [Peptide 10, 9-mer LIAMDSAIT derived from P22 (SEQ ID NO: 1003)]",7.3%,6.9%,7.7%

# Molecular target: T6, HLA-B*27:05 (human, biotinylated heavy chain)
# T6 construct: Conditional HLA class I complex as for m1
# Experiment: UV peptide exchange; HLA class I ELISA
# Experimental: as §2
Binder,Average %,Exch I (%),Exch II (%)
"IAMDSAITL [Peptide 2, 9-mer IAMDSAITL derived from FUS1 (SEQ ID NO: 1001)]",9.3%,10.1%,8.5%
"SLIAMDSAI [Peptide 3, 9-mer SLIAMDSAI derived from FUS1 (SEQ ID NO: 1001)]",6.3%,7.1%,5.5%
"SLYHREKQL [Peptide 4, 9-mer SLYHREKQL derived from P22 (SEQ ID NO: 1003)]",16.5%,19%,14%
"LYHREKQLI [Peptide 5, 9-mer LYHREKQLI derived from P22 (SEQ ID NO: 1003)]",17.4%,19.3%,15.4%
"YHREKQLIA [Peptide 6, 9-mer YHREKQLIA derived from P22 (SEQ ID NO: 1003)]",13.1%,14.4%,11.7%
"HREKQLIAM [Peptide 7, 9-mer HREKQLIAM derived from P22 (SEQ ID NO: 1003)]",30.9%,32.3%,29.5%
"KQLIAMDSA [Peptide 9, 9-mer KQLIAMDSA derived from P22 (SEQ ID NO: 1003)]",10.8%,11.8%,9.8%
"LIAMDSAIT [Peptide 10, 9-mer LIAMDSAIT derived from P22 (SEQ ID NO: 1003)]",7.3%,8.5%,6.1%
